Earlier results on one substance are cited in publication PMC2627783.

The data set addresses IscU (Escherichia coli) (UniProt P0ACD4). Description: ITC.

Chain of HscB (P0A6L9 whole entry): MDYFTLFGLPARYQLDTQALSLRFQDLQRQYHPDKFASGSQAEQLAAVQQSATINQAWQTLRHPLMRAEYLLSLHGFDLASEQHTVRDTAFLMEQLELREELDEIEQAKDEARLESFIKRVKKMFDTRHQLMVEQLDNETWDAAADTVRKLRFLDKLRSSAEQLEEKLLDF
Chain of IscU (Escherichia coli) (P0ACD4 whole entry): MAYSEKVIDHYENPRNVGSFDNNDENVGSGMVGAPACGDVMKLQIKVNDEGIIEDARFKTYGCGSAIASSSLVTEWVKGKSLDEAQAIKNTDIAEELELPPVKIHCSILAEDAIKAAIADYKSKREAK

Consider HscB (from UniProt P0A6L9), for which the Kd is 10 µM.
